The source of these data is patent publication US20230088277A1 (SHANGHAI SYNVIDA BIOTECHNOLOGY, published 2023).

Substitutions are numbered along the chain they refer to.

First the molecules themselves.
T1: 6×His tag human Pear1 extracellular segment (Leu-21-Ser; 754) (human, UniProt Q5VY43 21-754)
T1 construct: range 21-754; The ELISA and the Biacore test only say 'human Pear1 ECD protein' / 'extracellular segment'; also called human Pear1 ECD protein; human Pear1ECD protein; not shown: 6×His tag
T1 sequence (looked up): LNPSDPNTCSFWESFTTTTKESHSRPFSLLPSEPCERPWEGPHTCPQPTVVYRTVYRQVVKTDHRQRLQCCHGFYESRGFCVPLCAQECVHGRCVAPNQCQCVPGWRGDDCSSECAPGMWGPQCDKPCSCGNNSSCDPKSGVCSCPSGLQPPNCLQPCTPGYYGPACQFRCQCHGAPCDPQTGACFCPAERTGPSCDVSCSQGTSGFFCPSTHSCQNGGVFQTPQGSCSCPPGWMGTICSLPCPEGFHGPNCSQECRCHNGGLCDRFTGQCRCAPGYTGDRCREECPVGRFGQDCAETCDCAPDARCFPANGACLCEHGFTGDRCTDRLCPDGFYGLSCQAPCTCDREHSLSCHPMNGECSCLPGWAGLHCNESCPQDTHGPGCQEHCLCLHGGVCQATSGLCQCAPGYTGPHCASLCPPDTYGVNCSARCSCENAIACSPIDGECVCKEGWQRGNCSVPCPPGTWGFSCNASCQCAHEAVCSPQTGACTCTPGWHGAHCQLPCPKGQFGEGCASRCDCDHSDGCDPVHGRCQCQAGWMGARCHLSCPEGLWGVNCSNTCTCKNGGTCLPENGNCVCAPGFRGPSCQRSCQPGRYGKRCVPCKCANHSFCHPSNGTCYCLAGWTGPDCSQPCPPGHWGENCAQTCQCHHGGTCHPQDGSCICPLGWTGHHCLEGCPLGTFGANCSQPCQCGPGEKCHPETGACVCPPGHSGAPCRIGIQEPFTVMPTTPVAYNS

B1: LF15 (antibody, V domains shown)
VH: EVQLQQSGPELVKPGASMKISCKASGYSFTGYTMNWVKQSHGENLEWIGVINPYNGGTSYNQKFKGKATLTVDKSFSTAYMEILSLTSEDSAVYYCSRGGGNSWFAYWGQGTLVTVSA
VL: DIQMTQTSSYLSVSLGGRVTITCKASDHINNWLAWYQQKPGNAPRLLISGATSLETGVPSRFSGSGSGTDYSLTITSLQTEDVATYYCQQYWSIPTFGGGTRLEIK
notes: Mouse monoclonal antibody from hybridoma
B2: LF2 (antibody, V domains shown)
VH: EVQLQQSGPELVKPGASMKISCKASGYSFTGYPMNWVRQSHVKNLEWIGVINPYNGGTSYNQKFKGKATLTVDKSSSTAYIELLSLTSDDSAVYYCARGGVRPFAYWGQGTLVTVSA
VL: DIQMTQTSSSFSVSLGDRVTITCKASEDIYNRLAWYQQKPGNAPRLLISGATSLETGVPSRFSGSGSGNDYTLSITSLQTEDVATYYCQQYWSTPTFGAGTKLELQ
notes: as for B1
B3: LF7 (antibody, V domains shown)
VH: B2 VH with V42G, P53S, T58A, S77N, T78I, A79V, Y80H, I81M, D89E
VL: DIVMTQSQKFMSTSVGDRVSVTCKASQNVDTNVAWYQQKPGQSPKALIYSASYRYSGVPDRFTGSGSGTDFTLTISNVQSEDLAEYFCQQYDSYPYTFGGGTKLEIR
notes: as for B1
B4: LF11 (antibody, V domains shown)
VH: B2 VH with R38K, S40T, V42G, V50L, I81M, D90E, A105D, Y106F
VL: DIVITQSPAIMSASPGEKVTMTCSARSSVSYMYWYQQKPGSSPRLLIYDTSKLASGVPVRFSGSGSGTSYSLTISRMEAEDAATYFCQQWSSYPPTFGGGTKLEIK
notes: as for B1
B5: LF3 (antibody, V domains shown)
VH: B2 VH with R38K, S40T, V42G, V50L, I81M, D90E, A105D, Y106F
VL: B2 VL
notes: as for B1
B6: hLF109 (antibody, V domains shown)
VH: QVQLVQSGAEVKKPGASVKVSCKASGYTFTGYPMNWVRQAPGQNLEWMGVINPYNGGTSYNQKFKGRVTLTVDKSASTAYMELSSLRSEDTAVYYCARGGVRPFAYWGQGTLVTVSS
VL: DIQMTQSPSSLSASVGDRVTITCKASEDIYNRLAWYQQKPGKAPKLLISGATSLETGVPSRFSGSGSGNDFTLTISSLQPEDFATYYCQQYWSTPTFGQGTKLEIK
notes: Humanized antibody
B7: hLF101 (antibody, V domains shown)
VH: B6 VH with V72R
VL: B6 VL
notes: Humanized antibody (CDR grafting with back mutations)
B8: hLF114 (antibody, V domains shown)
VH: B6 VH with Q43K, V68A
VL: B6 VL with K42N
notes: Humanized antibody
B9: hLF112 (antibody, V domains shown)
VH: B6 VH
VL: B6 VL with K42N, F71Y
notes: Humanized antibody
B10: hLF105 (antibody, V domains shown)
VH: B6 VH with Q43K, N44R, V68A, K74T
VL: B6 VL
notes: Humanized antibody
B11: hLF111 (antibody, V domains shown)
VH: B6 VH
VL: B6 VL with F71Y
notes: Humanized antibody
B12: hLF106 (antibody, V domains shown)
VH: B6 VH with Q43K, N44R, V68A, K74T
VL: B6 VL with K42N
notes: Humanized antibody
B13: hLF102 (antibody, V domains shown)
VH: B6 VH with V72R
VL: B6 VL with K42N
notes: Humanized antibody
B14: hLF108 (antibody, V domains shown)
VH: B6 VH with Q43K, N44R, V68A, K74T
VL: B6 VL with K42N, F71Y
notes: Humanized antibody
B15: hLF110 (antibody, V domains shown)
VH: B6 VH
VL: B6 VL with K42N
notes: Humanized antibody; also called hLFHO
B16: hLF113 (antibody, V domains shown)
VH: B6 VH with Q43K, V68A
VL: B6 VL
notes: Humanized antibody
B17: hLF107 (antibody, V domains shown)
VH: B6 VH with Q43K, N44R, V68A, K74T
VL: B6 VL with F71Y
notes: Humanized antibody
B18: hLF103 (antibody, V domains shown)
VH: B6 VH with V72R
VL: B6 VL with F71Y
notes: Humanized antibody
B19: hLF115 (antibody, V domains shown)
VH: B6 VH with Q43K, V68A
VL: B6 VL with F71Y
notes: Humanized antibody
B20: hLF116 (antibody, V domains shown)
VH: B6 VH with Q43K, V68A
VL: B6 VL with K42N, F71Y
notes: Humanized antibody
B21: hLF104 (antibody, V domains shown)
VH: B6 VH with V72R
VL: B6 VL with K42N, F71Y
notes: Humanized antibody
B22: LF2-hIgG4 (antibody, V domains shown)
VH: B2 VH
VL: B2 VL
notes: read from the name as the variable domains of LF2 on human IgG4 constant regions; also called LF2-hlgG 4

One experiment has as its target T1, 6×His tag human Pear1 extracellular …. The experiment is described as follows: ELISA, plate coated with human Pear1 ECD. The procedure: FIG. 6 The comparison of the affinities of the anti-human Pear1 antibodies to human Pear1. The ELISA plate was coated with human Pear1 ECD proteins and the reactions were conducted between antibodies at different concentrations (2000 ng/mL, 1000 ng/mL, 500 ng/mL, 250 ng/mL, 125 ng/mL, 62.5 ng/mL, 31.25 ng/mL, 15.625 ng/mL, 7.8125 ng/mL, 3.90625 ng/mL, 1.953125 ng/mL, 0.9765625 ng/mL) and the human Pear1 ECD proteins. OD value was measured to obtain the EC 50 value of the antigen-antibody combination
8.2.1 Comparison of antigen binding ability of these antibodies.
For B1, the concentration giving a half-maximal response (EC50) came out at 0.0807 µg/mL.
Still for that read-out and setting: in the case of B2 it was 0.0111 µg/mL; in that of B3, 0.0336 µg/mL.
The same measure, in the same setting: the result for B4 reads 0.00891 µg/mL.
As to B5, the EC50 came out at 0.00927 µg/mL.

For another experiment the target is unchanged. In words: SPR (Biacore); antibody as ligand, Pear1 extracellular segment.
In the case of B6, the Kd came out at 6.14 nM, the off-rate (koff) was determined as 0.000249 s⁻¹, the association rate constant (kon) came to 40500 M⁻¹ s⁻¹ and the t1/2 is 46.4 min.
The like results for B7 were, in that order, 7.67 nM, 0.000393 s⁻¹, 51200 M⁻¹ s⁻¹ and 29.4 min.
For B8, in that order: 5.09 nM, 0.000232 s⁻¹, 45600 M⁻¹ s⁻¹ and 49.8 min.
The molecule B9 yielded a dissociation constant (Kd) of 4.99 nM, a dissociation rate constant (koff) of 0.000237 s⁻¹, an on-rate constant (kon) of 47500 M⁻¹ s⁻¹ and a t1/2 of 48.7 min.
The like results for B10 were, in that order, 3.82 nM, 0.000176 s⁻¹, 46200 M⁻¹ s⁻¹ and 65.6 min.
The like results for B11 were, in that order, 6.87 nM, 0.000271 s⁻¹, 39500 M⁻¹ s⁻¹ and 42.6 min.
B12 gave a Kd of 5.8 nM, a dissociation rate constant (koff) of 0.000233 s⁻¹, an association rate constant (kon) of 40100 M⁻¹ s⁻¹ and a t1/2 of 49.7 min.
B13 yielded a Kd of 7.87 nM, an off-rate constant (koff) of 0.000395 s⁻¹, a kon of 50200 M⁻¹ s⁻¹ and a t1/2 of 29.2 min.
For B14, in that order: 5.98 nM, 0.000307 s⁻¹, 51300 M⁻¹ s⁻¹ and 37.7 min.
The like results for B15 were, in that order, 5.42 nM, 0.000236 s⁻¹, 43500 M⁻¹ s⁻¹ and 49 min.
The like results for B16 were, in that order, 4.28 nM, 0.000201 s⁻¹, 47000 M⁻¹ s⁻¹ and 57.4 min.
In turn, B17 registered a Kd of 6.74 nM, a dissociation rate constant (koff) of 0.000345 s⁻¹, an on-rate (kon) of 51200 M⁻¹ s⁻¹ and a t1/2 of 33.5 min.
The like results for B18 were, in that order, 19 nM, 0.000532 s⁻¹, 28000 M⁻¹ s⁻¹ and 21.7 min.
For B19, in that order: 5.31 nM, 0.000235 s⁻¹, 44200 M⁻¹ s⁻¹ and 49.2 min.
For B20, in that order: 5.09 nM, 0.000221 s⁻¹, 43400 M⁻¹ s⁻¹ and 52.3 min.
As for B21, the Kd is 13.3 nM, the koff was determined as 0.000506 s⁻¹, the on-rate constant (kon) amounted to 38000 M⁻¹ s⁻¹ and the t1/2 turned out to be 22.8 min.
In turn, B22 had a Kd of 3.52 nM, an off-rate (koff) of 0.000187 s⁻¹, a kon of 53100 M⁻¹ s⁻¹ and a t1/2 of 61.8 min.
